These results are taken from the supplement of paper PMC12042874.

± gives the uncertainty stated by the source.

The data set in a line: amyloid nucleation score (Sup35N fusion, yeast selection) (log enrichment); library NNK1; higher = more nucleation; inactive = no reads after selection. Put shortly:
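Plasmid inserts were Illumina-sequenced at input and output from psi-negative yeast expressing Sup35N fused to peptides of 20 random codons. The yeast were induced with 100 μM copper sulfate for 24 hours and grown 7 days at 30°C on medium lacking adenine and uracil, and sequences with under 100 input reads were excluded. Nucleation score is the DiMSum log enrichment of output over input reads, centred on the mode score of non-aggregating sequences.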
Take EDFLYMCFRLSFVIIH: the amyloid nucleation score was determined as 3.42 ± 0.12.

PSCRC: the amyloid nucleation score entry was “inactive”. For the substance RLYIHHVIHVDKYNFGVYPP, the amyloid nucleation score worked out at 0.245 ± 0.32. As to LYRVSLLGRGGNSMMCDMWL, the amyloid nucleation score result is “inactive”. For SEHILFLCCMMVGSVVSSAC the value was “inactive”; for VATCWRYSGMSARLLSGSLN, 0.516 ± 0.4; for GNKDDTV, -1.6 ± 1.1. In turn, ISWSASLDIDINCQCRGLWG displayed an amyloid nucleation score of 3.35 ± 0.1. The substance MCILTRRFGLMGWNTHYKS came in with an amyloid nucleation score of -0.525 ± 0.94. In turn, SHSTFAVQMRA displayed an amyloid nucleation score of 8.273 ± 0.047. For GHVVLFLLYDLSFYSNIFCA the value was 0.712 ± 0.19; for VTIAHNGNLSCRLYTYVQVR, 0.515 ± 0.57; for TGYLIYSSWC, 0.146 ± 0.4. As for VRSFLPMYMF, the figure is -0.376 ± 1.7. In turn, LSWYPCWVARSTMALDGYGV showed an amyloid nucleation score of -0.776 ± 0.55. As for SSKLSYWYKMAIESSFNVLH, the figure is -0.083 ± 0.41; as for KDMDSFSTTCLLLRLRGRTG, 0.053 ± 0.35. The substance DAMWEMRVTTVRALARVCVC yielded an amyloid nucleation score of 0.236 ± 1.1. In turn, QTGAAFMVAASRGKKTGVLR came in with an amyloid nucleation score of 0.327 ± 0.28.

IYNGVTGRYWTSHI yielded an amyloid nucleation score of -0.989 ± 0.7.

The substance YFLFFFHVDCLRNASC displayed an amyloid nucleation score of -1.25 ± 2.7.

KIRVILYVPRVS had an amyloid nucleation score of 1.76 ± 0.51. As to RDTVTSNSSVT, the amyloid nucleation score is 4.36 ± 0.095.

With AFLQLDS, the amyloid nucleation score came to 0.665 ± 0.36. FCCCNRLYQGRELWVKLVNR had an amyloid nucleation score of 4.94 ± 0.06. As for HSWGRKVF, the figure is -1.1 ± 0.47; as for RRGGFG, -0.085 ± 0.69. In turn, IECMAMCHSVRSCCGSIYDC displayed an amyloid nucleation score of -0.422 ± 0.38.

Take IEVGIVGNLS: the amyloid nucleation score entry is “inactive”. For VTRFSAGTITVLTRDWRANC the value was -0.486 ± 1.6; for KSDRIKLYNKCWELAVLMKK, -0.555 ± 1.1; for QSVKTQGVVCAVSIYFGGCS, 2.39 ± 0.23.

As to FRKTMLWVLVVMGPIFTGSR, the amyloid nucleation score was 0.548 ± 0.87.

In turn, GAICQGLINDVVGRGDGMMR had an amyloid nucleation score of 1.19 ± 0.97. For the substance SCLPFLGYPFQDVGLIFLVA, the amyloid nucleation score was 0.749 ± 0.51. GFGLVRIPIMFNEAPEVVSK came in with an amyloid nucleation score of -0.133 ± 0.46. Take FRKEMIFYS: the amyloid nucleation score stood at 1.54 ± 0.47. In the case of SFIFLILMSAWFPFMRVTFG, the amyloid nucleation score was determined as 0.198 ± 0.64.

On to TGNGTCCESFSRSDKENSDA, for which the amyloid nucleation score result is “inactive”. LITYLRLFYRITVRTG registered an amyloid nucleation score of 0.48 ± 0.4. Consider FFVVELFVSHKLRLYRVRFG, for which the amyloid nucleation score was 0.412 ± 0.62. Turning to DKWLPIFTGGQLLSNLIFFC, the amyloid nucleation score stood at 0.832 ± 0.18.

As for MISGCLRVLMRAGVKHYVFM, the amyloid nucleation score is 0.369 ± 0.93. Turning to RGYVCTVVLSNILLGITTEG, the amyloid nucleation score was 3.79 ± 0.097. Take FIFLRYGLYVFFASLNGQGY: the amyloid nucleation score was -0.33 ± 0.83. For YQDFAGDARFGEIRWYYPKS the value was 0.125 ± 0.41; for AHCLECGMNVNGTIF, -0.81 ± 1.6; for EINESRLYYNSLQAFAFMWA, -0.823 ± 0.57.

In turn, LGMSKLIMSNNVFNIFDSHP came in with an amyloid nucleation score of 0.847 ± 0.9.

For the substance GFSRQSTWMCRKWSTNPRTW, the amyloid nucleation score was 1.15 ± 0.34. As to NSATRREPSVVGLYWSVR, the amyloid nucleation score was -2.42 ± 2.7. Regarding RYGRYSCSIIEGLCLMSSKW, the amyloid nucleation score was found to be 0.676 ± 0.95. For SRGLRNLSSMPNWAGLP, the amyloid nucleation score came out at 0.707 ± 0.61.

For VPAVSCMVFTAQFDSGVYSC, the amyloid nucleation score was -0.03 ± 0.73. As for YVGSDLFYRCQKNKYHRHSL, the amyloid nucleation score was -0.215 ± 0.97. For NQYSFRGLS the value was “inactive”; for TISGNVSCQKYSRLCVQGLS, 0.449 ± 0.25. For VSCCSNLVY the value was 0.144 ± 0.26; for GAAQWMKNSTIGHARFIADL, 0.2 ± 0.39. Turning to FLVCSFNYGAAPFFGGFMHY, the amyloid nucleation score was determined as 0.679 ± 0.23.

For WGYDTHLLMNLRNVCIGFLR, the amyloid nucleation score was -0.431 ± 0.7. HSHHGSSV showed an amyloid nucleation score of 1.08 ± 0.76.

The substance TTYYRFNVDKTFSAVISAEF showed an amyloid nucleation score of -1.02 ± 2.4.

Substance HMSDNGLSSMKRVYVVYPTT registered an amyloid nucleation score of -0.049 ± 0.23.

As for EGMNLV, the amyloid nucleation score was 0.196 ± 0.63. GFYGNIYFDNLRLNVMTRRG gave an amyloid nucleation score of 9.21 ± 0.061. On to CRFKYHLRV, for which the amyloid nucleation score was -1.21 ± 2.4. With NHGWVLNSNFYIPRKYSLVR, the amyloid nucleation score was -1.25 ± 0.48. In the case of RGVYVWKGSSLH, the amyloid nucleation score is -0.377 ± 1.1.

With SPSSVYVINLNSNLRGNGFA, the amyloid nucleation score turned out to be 7.08 ± 0.078. As for LCFVRMRYLFESDCPRHRKH, the amyloid nucleation score was determined as 0.384 ± 0.65. VYLACVSSPCLKS registered an amyloid nucleation score of -0.2 ± 0.79. For the substance FSSSTRSLNNPLL, the amyloid nucleation score is 0.006 ± 0.44. YSVVRCRVANC returned an amyloid nucleation score of 0.263 ± 0.61. The substance SAVWEVVEGDVLMWSYMKSP showed an amyloid nucleation score of 0.019 ± 0.33. TTCCINSLMCTDTNSCIAGV registered an amyloid nucleation score of 2.08 ± 0.6.

In the case of ERFVYALIEFCIETERLHTE, the amyloid nucleation score is -0.459 ± 0.45. The substance KFFEFLYKFDPCRRYCRLCQ yielded an amyloid nucleation score of 0.264 ± 0.36. Consider SKYRLNAMWSACRQRWANIG, for which the amyloid nucleation score is -0.995 ± 1.7.

RGSCMIVGKACS had an amyloid nucleation score of -0.37 ± 0.33. As for HVHRIN, the figure is -0.717 ± 1.1; as for NLFSLYGSNFLSP, 1.97 ± 0.14; as for VDMNAEKTSSDERLWERRRT, 0.606 ± 0.65.

Regarding RRGEPIKKIPACGGSLCVR, the amyloid nucleation score is -0.368 ± 0.47. In turn, LIQRLVFEYMFPVIGVPISW registered an amyloid nucleation score of -0.208 ± 0.65.

VLKCFSLEVVTWDSACLAGL yielded an amyloid nucleation score of 0.252 ± 1.1. For PPGIRAYM the value was -0.036 ± 0.35; for LDTVYNVSMKKIKVTSIGQC, -0.537 ± 0.47; for GVFMKYQ, 0.18 ± 1.2. Consider FCEHNVISYNESLRM, for which the amyloid nucleation score was found to be 0.352 ± 0.53. For FESMVTIILIDPFDVLIGDG the value was “inactive”.

Take RMSNDITNFSFTIVTM: the amyloid nucleation score amounted to 3.86 ± 0.08. SCDYGL showed an amyloid nucleation score of 0.512 ± 0.63. Consider HLPFYLCF, for which the amyloid nucleation score is 1.57 ± 0.43.

The substance SRYIGSSPARMMASWTFQGL had an amyloid nucleation score of 4.01 ± 0.078. On to TLIGSDLVFGSRDPGWGCTI, for which the amyloid nucleation score is -0.406 ± 0.45. As for YWFFSIMSSYSVNTQM, the figure is 1.64 ± 0.8; as for LFWSET, -0.526 ± 0.81; as for TSDNFCQCHCSFFQSWFGG, -0.27 ± 0.63. For DEWSNKHCSQNTALCSLWAT, the amyloid nucleation score is 1.43 ± 0.2. LIWWFEGRPRVSGGFSVFDV returned an amyloid nucleation score of -0.304 ± 1.1. For FVTMAVWGLYTCFKVHKGIV the value was -0.4 ± 0.78; for DHFPARKVGCTILTCMMQKL, 0.697 ± 0.63. As for PTRLPYGTSLIWDTSHANWG, the figure is -0.706 ± 0.59; as for ISTPIDDPKCLGSLVYFHQM, -0.693 ± 0.53.

VLPCSGQA displayed an amyloid nucleation score of 0.79 ± 0.26.

In the case of GWMVRMLEHYHPAV, the amyloid nucleation score was -0.226 ± 0.42. For FNSARGSLVPRFPRGEQR, the amyloid nucleation score was -0.787 ± 1.9. As for SLMIDRTRLGGN, the figure is 0.769 ± 0.17; as for LRVVYPGPSYAGASDLSSMR, -0.926 ± 0.63; as for MWELRFVLCLMIHEFRRWHE, -0.056 ± 0.64.

KGISVTCEGK returned an amyloid nucleation score of 1.24 ± 0.79. SITVVSNEFNVVNVILCGCY registered an amyloid nucleation score of 7.009 ± 0.046. Take LFGVFGFISVVSFSP: the amyloid nucleation score is -0.455 ± 1.7. With IFWTFRGITMPSC, the amyloid nucleation score was 0.702 ± 0.55. As for VITVSGSEGEIEWSS, the figure is -1.64 ± 2.7; as for ANNNEYRFWTTSYW, 0.041 ± 1.4; as for YLDSILYMGLTDLVWQVGTT, -0.334 ± 0.43. For the substance VRAFGYDGLHLVITCYHCRH, the amyloid nucleation score amounted to 0.726 ± 0.77. In turn, QSTVTCRFMCVVWGSNW returned an amyloid nucleation score of -0.078 ± 0.47.

The substance KDEGLTEVFESWISWGW registered an amyloid nucleation score of -0.065 ± 0.9.

For GNCWYV, the amyloid nucleation score was -0.16 ± 0.31. As for YSVMSSRSGIVGSWVHRGVQ, the figure is 0.38 ± 0.32; as for TEDVKAVKVLGLTLGVQVIT, -0.657 ± 0.38; as for YSNSGMGNV, 0.568 ± 0.21. Consider GCVVI, for which the amyloid nucleation score came to 0.258 ± 0.26. As to EYSIIYCICH, the amyloid nucleation score came out at 3.08 ± 0.14. Turning to ALSEFIFGLWLSFLIPRYMW, the amyloid nucleation score is 1.21 ± 0.56. As to EAGKLL, the amyloid nucleation score came out at 0.309 ± 0.32.

CLSDGTMAFPCPGRQDVRTV: the amyloid nucleation score is -0.015 ± 0.34. DYKHNPKWKMCKCLLAIRNY: the amyloid nucleation score came out at 1.53 ± 0.51. SSVYVSIQLGGTLPRWGGVR gave an amyloid nucleation score of 1.19 ± 0.3. The substance ITPYQQFWLIVDTIGNMMEI yielded an amyloid nucleation score of 2.07 ± 0.2. As to IINERSANLYDFVVIDRSWL, the amyloid nucleation score is -1.04 ± 0.69. On to FSDVCGPSPLCW, for which the amyloid nucleation score came out at 0.142 ± 0.44. For NPFWWVRPL the value was 0.284 ± 0.81. CGLLVVLRANVFILCGYK had an amyloid nucleation score of 0.399 ± 0.24. NSCWRTGLQVPVSQHYNQTI returned an amyloid nucleation score of -0.492 ± 0.61. LYYDSLYCHSFLWYGSLVLS yielded an amyloid nucleation score of -0.06 ± 0.38. Substance QRERMRGFKFDRLFCIRVWW gave an amyloid nucleation score of -1.03 ± 0.44. EKGLEFHLWLRPVLRACVGY came in with an amyloid nucleation score of 1.01 ± 1.1.
